Assay results as given in IntAct's records for PubMed 21223507.

B1: Eukaryotic translation initiation factor 2-alpha kinase 1 (Mus musculus), Q9Z2R9 (parent)
chain: MLGGSSVDGERDTDDDAAGAVAAPPAIDFPAEVSDPKYDESDVPAELQVLKEPLQQPTFPFLVANQLLLVSLLEHLSHVHEPNPLHSKQVFKLLCQTFIKMGLLSSFTCSDEFSSLRLHHNRAITHLMRSAKERVRQDPCQDNSYMQKIRSREIAFEAQTSRYLNEFEELAILGKGGYGRVYKVRNKLDGQHYAIKKILIKSATKTDCMKVLREVKVLAGLQHPNIVGYHTAWIEHVHVVQPQDRVPIQLPSLEVLSEQEGDRDQGGVKDNESSSSIVFAELTPEKEKPFGESEVKNENNNLVSYTANLVVRNSSESESSIELQEDGLTDLSVRPVVRHQLPLGHSSELEGNFTSTDESSEGNLNLLGQTEVRYHLMLHIQMQLCELSLWDWITERNKRSREYVDEAACPYVMASVATKIFQELVEGVFYIHNMGIVHRDLKPRNIFLHGPDQQVKIGDFGLACADIIQNADWTNRNGKGTRTHTSRVGTCLYASPEQLEGSQYDAKSDMYSLGVILLELFQPFGTEMERATVLTGVRTGRIPESLSKRCPVQAKYIQLLTGRNVSQRPSALQLLQSELFQTTGNVNLTLQMKIIEQEKEIEELKKQLSLLSQDRGLKR

Variants of: B1
Settings: with if2a_mouse Eif2s1, Q6ZWX6
Chain of if2a_mouse Eif2s1, Q6ZWX6 (Q6ZWX6 whole entry): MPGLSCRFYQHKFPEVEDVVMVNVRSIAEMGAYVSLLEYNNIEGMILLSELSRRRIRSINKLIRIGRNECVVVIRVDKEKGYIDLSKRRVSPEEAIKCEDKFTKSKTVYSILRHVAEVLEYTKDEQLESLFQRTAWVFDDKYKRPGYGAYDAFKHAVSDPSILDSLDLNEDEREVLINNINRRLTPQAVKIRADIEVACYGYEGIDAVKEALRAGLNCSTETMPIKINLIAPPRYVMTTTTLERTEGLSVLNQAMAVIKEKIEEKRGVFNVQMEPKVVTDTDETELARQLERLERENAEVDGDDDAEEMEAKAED

Row | Variant | effect of a mutation on the interaction
1 | H120A | decreasing interaction
2 | H119A | decreasing interaction

Variants of: B1
Settings: with if2a_mouse Eif2s1, Q6ZWX6
Remark: another data set of the same source

Row | Variant | effect of a mutation on the interaction
3 | Y193F | decreasing interaction

Variants of: B1
Settings: with if2a_mouse Eif2s1, Q6ZWX6
Remark: another data set of the same source

Row | Variant | effect of a mutation on the interaction
4 | T485A | decreasing interaction

Variants of: B1
Settings: with if2a_mouse Eif2s1, Q6ZWX6
Remark: another data set of the same source

Row | Variant | effect of a mutation on the interaction
5 | K196R | disrupting interaction

Variants of: B1
Settings: with if2a_mouse Eif2s1, Q6ZWX6
Remark: another data set of the same source

Row | Variant | effect of a mutation on the interaction
6 | T490A | disrupting interaction

Variants of: B1
Settings: with if2a_mouse Eif2s1, Q6ZWX6
Remark: another data set of the same source

Row | Variant | effect of a mutation on the interaction
7 | S502A | disrupting interaction
